Usually Kd stands for the equilibrium constant for the complex coming apart. Higher therefore signals lower affinity. As usually defined, the stoichiometry N is a count of units in the complex or per binding partner.

The source of these data is article PMC5645467.

A value given as a limit tells only on which side of the number the result lay.

This assay concerns the target ΔIBB-importin α1 (as used for ITC) (mouse), P52293. The experiment in a line: ITC; nano-ITC, 20 °C; GST-RCC1 (300 µM) injected in 2.0 µl increments into 195 µl of ΔIBB-importin α3 or α1 (100 µM); 20 mM Tris-HCl pH 8.0, 150 mM NaCl, 5 mM BME, 0.1 mM PMSF; single set of binding sites model; triplicate. Particulars: remark: other sources report otherwise. For orientation: Isothermal titration calorimetry measures the heat released or taken up as one component is titrated into another.

B1: GST-RCC1 (full-length human RCC1, wild type), P18754 1-421 (natural protein)
chain: MSPKRIAKRRSPPADAIPKSKKVKVSHRSHSTEPGLVLTLGQGDVGQLGLGENVMERKKPALVSIPEDVVQAEAGGMHTVCLSKSGQVYSFGCNDEGALGRDTSVEGSEMVPGKVELQEKVVQVSAGDSHTAALTDDGRVFLWGSFRDNNGVIGLLEPMKKSMVPVQVQLDVPVVKVASGNDHLVMLTADGDLYTLGCGEQGQLGRVPELFANRGGRQGLERLLVPKCVMLKSRGSRGHVRFQDAFCGAYFTFAISHEGHVYGFGLSNYHQLGTPGTESCFIPQNLTSFKNSTKSWVGFSGGQHHTVCMDSEGKAYSLGRAEYGRLGLGEGAEEKSIPTLISRLPAVSSVACGASVGYAVTKDGRVFAWGMGTNYQLGTGQDEDAWSPVEMMGKQLENRVVLSVSSGGQHTVLLVKDKEQS
Regarding B1, the Kd is 5.4 µM and the stoichiometry N is under 1.
